Experimental findings from patent US20230279368A1 (NORTH CAROLINA STATE UNIVERSITY, published 2023) are described below.

Series [1] deals with the molecule itself. The experiment in a line: size exclusion chromatography and SAXS, self-association (homodimer). The protocol:
Size Exclusion Chromatography. To determine molecular mass, NTA purified samples were subjected to size exclusion chromatography (Superdex 200 10/300 GL, GE Healthcare) equilibrated with SEC buffer (100 mM Tris pH7.5, 200 mM sodium chloride). The protein sample equilibrated in SEC buffer was applied to the column. The mass of BHT₍₂₃₋₅₉₄₎-HIS was calculated based on the standards in the high molecular weight gel calibration kit (Cytiva Life Sciences*).
Small angle X-ray scattering: Data Collection and Analysis. rBHT₍₂₃₋₅₉₄₎-HIS samples at 1 mg/ml and 4 mg/ml 5 mM in sodium phosphate buffer at pH 5 were measured on a Rigaku Bio-SAXS 2000. The instrument uses Cu Kα radiation (λ=1.54 Å) and was collimated to provide a sufficient Q-range of 0.01-0.67 Å⁻¹. Measurements were performed at ambient temperature. Samples were measured for a total of 40 min in 5 min scans. Data were corrected for transmission and sample background. […]
The dimer conformation was further validated in solution by small X-ray scattering (SAXS) (FIG. 7A). […] Molecular mass were calculated using the method described by Rambo and Tamer. The molecular mass determined from SAXS (˜169 KDa) confirmed that BHT forms a dimer in solution Table 3. […] The Rg and Dₘₐₓ of the 6M4F crystallographic dimer (molecule A and molecule C) calculated using Crysol are 34 Å and 110 Å, respectively. […]

Series [2] concerns the molecule itself. Kind of series: size exclusion chromatography, self-association (homodimer); data not shown. (In general: SEC sorts molecules by how far they enter the pores of the column.)

B1: rBHT(23-594)-HIS (enzyme)
chain: VTYPGAIPLSLTSNYETPSPTAIPLEPTPTATGTAELDALWNLVEAQYPVQTAAVTTLVTVPDDYKFEADPPSYALAGYETSEIAGLKFPKGFKFGVAGAAIQVEGAAKAEGRGPSTWDYLCHHYASTQCNNYDPDITTNHYYLYPLDFARLQHLGINTYSFSISWTRIYPLGAGYVNEAGLAHYDAVIHSAKKYGLEPVGTVFHWDTPLSLMLKYGAWQDTGDQIVKDFVTYATTVFKRYGNEVKTWFTFNEPRVFCSQNSGLPYNLTYPEGINSTSAVFRCTYNVLKAHGHAVKVYRDLVASGTIAAGEIGFKSDDNYPIPARPGNADDEESAKRHEAFRIGIFAQPVYGNGDYPDVVKETVGDMLPALTDEDKGYIKGSGDIFAIDGYRTDISHAALNGIANCIRNQSDPNWPVCEEGSDPFAHVYPSGFAIGQSADPLSSWLVNSAPFIRDQLKFLTQTYPAKGGIYFSEFGWAEDAEYDRQLLYQITWDGLRTQYLTDYLSQLLLAVHKDGINLRGALTWSFVDNWEWGLGMQQKFGFQFVNQSDPDLTRTFKLSAHAYAQFGRNHLHHHHHH
modifications: N-glycosylated at N289, N297, N431 and N569 (numbering of full-length BHT, SEQ ID NO: 1), expressed in K. pastoris
notes: the entries describe its self-association into a homodimer
As for B1, the binding result in series [1] was “binds”.

B2: rBHT(57-594)-HIS (enzyme)
chain: AELDALWNLVEAQYPVQTAAVTTLVTVPDDYKFEADPPSYALAGYETSEIAGLKFPKGFKFGVAGAAIQVEGAAKAEGRGPSTWDYLCHHYASTQCNNYDPDITTNHYYLYPLDFARLQHLGINTYSFSISWTRIYPLGAGYVNEAGLAHYDAVIHSAKKYGLEPVGTVFHWDTPLSLMLKYGAWQDTGDQIVKDFVTYATTVFKRYGNEVKTWFTFNEPRVFCSQNSGLPYNLTYPEGINSTSAVFRCTYNVLKAHGHAVKVYRDLVASGTIAAGEIGFKSDDNYPIPARPGNADDEESAKRHEAFRIGIFAQPVYGNGDYPDVVKETVGDMLPALTDEDKGYIKGSGDIFAIDGYRTDISHAALNGIANCIRNQSDPNWPVCEEGSDPFAHVYPSGFAIGQSADPLSSWLVNSAPFIRDQLKFLTQTYPAKGGIYFSEFGWAEDAEYDRQLLYQITWDGLRTQYLTDYLSQLLLAVHKDGINLRGALTWSFVDNWEWGLGMQQKFGFQFVNQSDPDLTRTFKLSAHAYAQFGRNHLHHHHHH
notes: the entry describes its self-association into a dimer
Regarding B2, the binding result in series [2] is “binds”.

B3: rBHT(32-594)-HIS (enzyme)
chain: SLTSNYETPSPTAIPLEPTPTATGTAELDALWNLVEAQYPVQTAAVTTLVTVPDDYKFEADPPSYALAGYETSEIAGLKFPKGFKFGVAGAAIQVEGAAKAEGRGPSTWDYLCHHYASTQCNNYDPDITTNHYYLYPLDFARLQHLGINTYSFSISWTRIYPLGAGYVNEAGLAHYDAVIHSAKKYGLEPVGTVFHWDTPLSLMLKYGAWQDTGDQIVKDFVTYATTVFKRYGNEVKTWFTFNEPRVFCSQNSGLPYNLTYPEGINSTSAVFRCTYNVLKAHGHAVKVYRDLVASGTIAAGEIGFKSDDNYPIPARPGNADDEESAKRHEAFRIGIFAQPVYGNGDYPDVVKETVGDMLPALTDEDKGYIKGSGDIFAIDGYRTDISHAALNGIANCIRNQSDPNWPVCEEGSDPFAHVYPSGFAIGQSADPLSSWLVNSAPFIRDQLKFLTQTYPAKGGIYFSEFGWAEDAEYDRQLLYQITWDGLRTQYLTDYLSQLLLAVHKDGINLRGALTWSFVDNWEWGLGMQQKFGFQFVNQSDPDLTRTFKLSAHAYAQFGRNHLHHHHHH
notes: as for B2
On to B3, for which the binding result in series [2] is reported as “binds”.

B4: rBHT(54-594)-HIS (enzyme)
chain: TGTAELDALWNLVEAQYPVQTAAVTTLVTVPDDYKFEADPPSYALAGYETSEIAGLKFPKGFKFGVAGAAIQVEGAAKAEGRGPSTWDYLCHHYASTQCNNYDPDITTNHYYLYPLDFARLQHLGINTYSFSISWTRIYPLGAGYVNEAGLAHYDAVIHSAKKYGLEPVGTVFHWDTPLSLMLKYGAWQDTGDQIVKDFVTYATTVFKRYGNEVKTWFTFNEPRVFCSQNSGLPYNLTYPEGINSTSAVFRCTYNVLKAHGHAVKVYRDLVASGTIAAGEIGFKSDDNYPIPARPGNADDEESAKRHEAFRIGIFAQPVYGNGDYPDVVKETVGDMLPALTDEDKGYIKGSGDIFAIDGYRTDISHAALNGIANCIRNQSDPNWPVCEEGSDPFAHVYPSGFAIGQSADPLSSWLVNSAPFIRDQLKFLTQTYPAKGGIYFSEFGWAEDAEYDRQLLYQITWDGLRTQYLTDYLSQLLLAVHKDGINLRGALTWSFVDNWEWGLGMQQKFGFQFVNQSDPDLTRTFKLSAHAYAQFGRNHLHHHHHH
notes: as for B2
For the protein B4, the binding result in series [2] was “binds”.
